Measurements: the RNAGym collection of RNA variant scans (doi:10.1073/pnas.2313332121)
Variants at the floor of the assay were thinned out.

B1: TPR 5TU (parent)
chain: GGAUCUUCUCGAUCUAACAAAAAAGACAAAUCUGCCACAAAGCUUGAGAGCAUCUUCGGAUGCAGAGGCGGCAGCCUUCGGUGGCGCGAUAGCGCCAACGUUCUCAACUAUGACACGCAAAACGCGUGCUCCGUUGAAUGGAGUUUAUCAUG

Variants of: B1
Assay: polymerase ribozyme fitness, log enrichment relative to wild type (log ratio); higher = more active; in vitro selection for triplet polymerase activity
Summary of the method: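 For each subunit of a heterodimeric triplet polymerase ribozyme, a mutant library was built by PCR and transcribed, then taken through a single in vitro selection round in triplicate. Selection involved annealing to a biotinylated primer, the partner subunit and triplets, incubation frozen at −7 °C, gel excision of extended constructs, capture on streptavidin beads and RT-PCR. Genotypes were retained after Illumina sequencing of inputs and outputs only with ≥10 input reads and ≥1 read in each output. Fitness is defined as the logarithm of a genotype's enrichment relative to wild-type enrichment, using inverse-variance-weighted averages across replicates, with the logarithm taken to base 2.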

C14G A24U A28U C43U A73G U82C C103G G136A U146C and C14G A26U G58C A89U G117U A120C C125A cannot be ordered by “polymerase ribozyme fitness (log ratio)” value: ≤ -4.2 for the first, ≤ -4.2 for the second.

Compared with U13G U56A G71A U135C, C14A C54U is higher in “polymerase ribozyme fitness (log ratio)” value: ≤ -4.2 for the first, -2.07 for the second.

Compared with C14A C54A, C14A A39U A49C C57A C79G G86U is lower in “polymerase ribozyme fitness (log ratio)” value: -3.55 for the first, ≤ -4.2 for the second.

First: C14A C125A
Second: C14A U15C A19C A20C U45C G86U
The “polymerase ribozyme fitness (log ratio)” value of the first is higher: -1.75 for the first, -4.11 for the second.

Compared with C14A U44A G81A C85A U102G, U13G G141C is higher in “polymerase ribozyme fitness (log ratio)” value: ≤ -4.2 for the first, -1.88 for the second.

Going from C14G A19U G59C G81U C95U G141A to C14A G58A G68A U78A G94A, the “polymerase ribozyme fitness (log ratio)” value falls from -3.74 to ≤ -4.2.

First: C14A A28U G46C U61A C95U U139C A150C
Second: U13G G136A U144C
The “polymerase ribozyme fitness (log ratio)” value of the first is lower: ≤ -4.2 for the first, -2.04 for the second.

Compared with C14A C38A G42C U56G G67C G84A C108U U127C, C14A C93U is higher in “polymerase ribozyme fitness (log ratio)” value: ≤ -4.2 for the first, -2.33 for the second.

Going from C14A C38U to C14A G83A, the “polymerase ribozyme fitness (log ratio)” value rises from -1.31 to -0.809.

C14G A17G C27U C96G A122G G141C and C14G A22G C54U G70U C95U C96A C114U A137C cannot be ordered by “polymerase ribozyme fitness (log ratio)” value: ≤ -4.2 for the first, ≤ -4.2 for the second.

Going from U13G U56A C76G A91U C93U to C14A G84A, the “polymerase ribozyme fitness (log ratio)” value rises from ≤ -4.2 to -1.24.

Going from C14G A20U C76A to C14G A20U G50A U56A G65U C93A C131A, the “polymerase ribozyme fitness (log ratio)” value falls from -3.92 to ≤ -4.2.

C14A A28U G68U G92C C125U A137C A150C and C14A C18U A22U A26U U82C C95U U145G U148C C149U cannot be ordered by “polymerase ribozyme fitness (log ratio)” value: ≤ -4.2 for the first, ≤ -4.2 for the second.

First: C14A A39C G70A U130G
Second: U13G U31C C96A
The “polymerase ribozyme fitness (log ratio)” value of the first is lower: ≤ -4.2 for the first, -0.864 for the second.

First: C14A C63U G71A C85G G100U
Second: U13G U61A A89U C96U
The “polymerase ribozyme fitness (log ratio)” value of the first is lower: ≤ -4.2 for the first, -3.58 for the second.

C14G A22C A39C A52G C75G U82G G140U and C14A A19G A26U C79A G83U A119C cannot be ordered by “polymerase ribozyme fitness (log ratio)” value: ≤ -4.2 for the first, ≤ -4.2 for the second.

C14A U31A U55A G92A C125U A142U and C14A G62C C76A C87A G117U A137C U146G cannot be ordered by “polymerase ribozyme fitness (log ratio)” value: ≤ -4.2 for the first, ≤ -4.2 for the second.

C14A G59A G84A A106G C125G U148C C149U and C14G A21U G59C G94A U101G A113C cannot be ordered by “polymerase ribozyme fitness (log ratio)” value: ≤ -4.2 for the first, ≤ -4.2 for the second.

First: C14A A16G
Second: C14A U90G A137C
The “polymerase ribozyme fitness (log ratio)” value of the first is higher: -0.651 for the first, ≤ -4.2 for the second.

U13G G65C G83A and C14A A23C U56A C75G U77A C93U C95G U102C cannot be ordered by “polymerase ribozyme fitness (log ratio)” value: ≤ -4.2 for the first, ≤ -4.2 for the second.

C14A A29C C96G A150U and U13G G48C G81A C96A cannot be ordered by “polymerase ribozyme fitness (log ratio)” value: ≤ -4.2 for the first, ≤ -4.2 for the second.

Going from C14A A19C C93U C125A to C14G A23U A28C A40G G42C A89U C116G G124C U134G, the “polymerase ribozyme fitness (log ratio)” value falls from -3.52 to ≤ -4.2.

C14A U102G and C14A A37U A52G G83A G84A A115U cannot be ordered by “polymerase ribozyme fitness (log ratio)” value: ≤ -4.2 for the first, ≤ -4.2 for the second.

Going from C14A A52G U55G C99U to C14A A37U C75G G94A A113G C114G C149A, the “polymerase ribozyme fitness (log ratio)” value falls from -3.48 to ≤ -4.2.

C14A A17U A40U C57G G84U C96A A121C and C14A A16U A49G G50A C57A A60G C95G U101C A110G cannot be ordered by “polymerase ribozyme fitness (log ratio)” value: ≤ -4.2 for the first, ≤ -4.2 for the second.

Going from U13G G92C to U13G C87U, the “polymerase ribozyme fitness (log ratio)” value rises from -2.36 to -1.62.

Compared with C14A A41C C76U G84U, C14A G62U is higher in “polymerase ribozyme fitness (log ratio)” value: -2.89 for the first, -1.57 for the second.

C14G A22C A52U C96A A97U G117U and C14G A21U A52G C85A C118G G128A G141C cannot be ordered by “polymerase ribozyme fitness (log ratio)” value: ≤ -4.2 for the first, ≤ -4.2 for the second.

C14G A19C C75U U82C C93U A97U C105G and U13G G94C C114G G143A cannot be ordered by “polymerase ribozyme fitness (log ratio)” value: ≤ -4.2 for the first, ≤ -4.2 for the second.

Compared with U13G C96A, C14G A26U C27G C35A A52C A91G A107G G126U U130A is lower in “polymerase ribozyme fitness (log ratio)” value: -0.681 for the first, ≤ -4.2 for the second.

U13G G42A G50U C76A G86C C132A and U13G G83U C105U G117C U148A cannot be ordered by “polymerase ribozyme fitness (log ratio)” value: ≤ -4.2 for the first, ≤ -4.2 for the second.

C14A A17U A24C C57U G58C C87A and C14G A21U A60U C75A U77G A89U C95A cannot be ordered by “polymerase ribozyme fitness (log ratio)” value: ≤ -4.2 for the first, ≤ -4.2 for the second.

First: C14A C27G C32G U77C G84A
Second: U13G U90G
The “polymerase ribozyme fitness (log ratio)” value of the first is lower: ≤ -4.2 for the first, -4.04 for the second.

C14G A23G G88A and C14A A41U C76G C87A G92C U144G cannot be ordered by “polymerase ribozyme fitness (log ratio)” value: ≤ -4.2 for the first, ≤ -4.2 for the second.

C14A G80C G86U C118U and C14A C36U U45C C87U C105A G133U cannot be ordered by “polymerase ribozyme fitness (log ratio)” value: ≤ -4.2 for the first, ≤ -4.2 for the second.

First: C14A A39U A73G C95G
Second: U13G U55A G94A G100A G140U
The “polymerase ribozyme fitness (log ratio)” value of the first is lower: ≤ -4.2 for the first, -4.11 for the second.

Compared with C14A G50A C85U G126C, C14G A20G C75A C96G G141C is lower in “polymerase ribozyme fitness (log ratio)” value: -4.17 for the first, ≤ -4.2 for the second.

First: C14A A21U G59U G133C
Second: U13G U53A A66C G83U C149A
The “polymerase ribozyme fitness (log ratio)” value of the first is higher: -3.06 for the first, ≤ -4.2 for the second.

First: C14A U55A
Second: C14A C99G
The “polymerase ribozyme fitness (log ratio)” value of the first is lower: -1.9 for the first, -1.66 for the second.

Going from C14A C76A A89C U90G C95U A107U to C14A G62U G94A, the “polymerase ribozyme fitness (log ratio)” value rises from ≤ -4.2 to -2.9.

C14A A17G G74U C85U C99G U101A U148A and U13G C85U C99U G128C C132U cannot be ordered by “polymerase ribozyme fitness (log ratio)” value: ≤ -4.2 for the first, ≤ -4.2 for the second.

For U13G G136A A137G C149U, the “polymerase ribozyme fitness (log ratio)” value was -3.07.
